A word on the stoichiometry N: it is the number of molecules, sites or subunits per partner or assembly. In general, Kd refers to the equilibrium constant for the complex coming apart. Low readings indicate a tighter complex, high ones a looser complex. For orientation: koff means the rate constant with which the complex falls apart. A low value points to a long-lived complex. As a reminder, the kon is a measure of how fast the partners come together. Read a low kon as slow association.

This note sets out measurements from paper PMC6070508.

Experiment [1] has as its target His-tagged IgE-Fc (human). The experiment is described as follows: SPR; sandwich: about 100 RU of His-tagged IgE-Fc captured on an 8D6 Fab surface, then a second 8D6 Fab injected at 30 uL/min; HBS-P. Background: SPR reads the build-up and loss of mass on a sensor chip optically.
For experiment [2], the target named is 1:1 8D6 Fab/IgE-Fc complex. Described as above.

Chain of His-tagged IgE-Fc (human) (P01854 other isoform, or with tags, fused parts or gaps): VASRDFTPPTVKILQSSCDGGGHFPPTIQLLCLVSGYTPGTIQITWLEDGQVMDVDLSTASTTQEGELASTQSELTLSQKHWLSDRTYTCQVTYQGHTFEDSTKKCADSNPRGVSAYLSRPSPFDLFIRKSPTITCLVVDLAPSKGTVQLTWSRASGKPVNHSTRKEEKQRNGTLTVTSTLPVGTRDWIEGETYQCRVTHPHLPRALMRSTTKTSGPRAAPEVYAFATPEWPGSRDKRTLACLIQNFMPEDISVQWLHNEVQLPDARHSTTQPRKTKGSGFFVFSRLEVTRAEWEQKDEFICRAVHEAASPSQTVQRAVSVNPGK

B1: 8D6 Fab (Fab, V domains shown)
VH: QVQLQQSGAELAKPGASVMLSCKASGYTFNGYWMHWVKQRPGQDLEWIGYINPTTGHTEYNQKFKDKATLTADESSNTAYIELSSLTSDDSAVYYCARQEYRHSWFAYWGQGTLVTVSA
VL: DIVLTQSPASLAVSLGQRATISCKASQSVDYDGDTYMNWYHQKPGQPPKLLIYAASNLDSGIPARFSGSGSGTDFTLNIHPVEEEDAATYYCQQTNEDPWTFGGGTKLEIK
As to B1, the stoichiometry N in experiment [1] turned out to be 2. In experiment [2], this molecule came in with a dissociation constant Kd of 0.06 nM, an off-rate (koff) of 6e-05 s⁻¹ and a kon of 1e+06 M⁻¹ s⁻¹.
